Reference: article PMC7176092, “Development of the first in vivo GPR17 ligand through an iterative drug discovery pipeline: A novel disease-modifying strategy for multiple sclerosis” (PLoS ONE, 2020)

Legend:
ADR1A = molecular target: T1, ADR1A (Homo sapiens, UniProt P35348); assay: Binding assay ADR1A; conditions: reference compound
T1 construct: Eurofins Cerep (external service)
T1 sequence (P35348 1-466): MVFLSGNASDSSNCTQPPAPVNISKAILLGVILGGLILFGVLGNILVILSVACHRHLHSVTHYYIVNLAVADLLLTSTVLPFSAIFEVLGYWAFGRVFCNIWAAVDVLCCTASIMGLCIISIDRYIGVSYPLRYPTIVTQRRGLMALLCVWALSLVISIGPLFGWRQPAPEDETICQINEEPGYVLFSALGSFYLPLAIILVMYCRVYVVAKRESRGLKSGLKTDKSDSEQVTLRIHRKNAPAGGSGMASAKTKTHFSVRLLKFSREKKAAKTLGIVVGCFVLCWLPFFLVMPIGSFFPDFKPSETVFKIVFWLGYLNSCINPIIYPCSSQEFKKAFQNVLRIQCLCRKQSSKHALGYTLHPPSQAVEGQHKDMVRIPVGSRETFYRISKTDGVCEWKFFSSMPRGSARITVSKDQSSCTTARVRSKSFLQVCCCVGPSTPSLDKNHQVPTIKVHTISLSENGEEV

CXCR5 = molecular target: T2, CXCR5 (Homo sapiens, UniProt P32302); assay: Cellular functional assay CXCR5; conditions: reference agonist
T2 sequence (P32302 1-372): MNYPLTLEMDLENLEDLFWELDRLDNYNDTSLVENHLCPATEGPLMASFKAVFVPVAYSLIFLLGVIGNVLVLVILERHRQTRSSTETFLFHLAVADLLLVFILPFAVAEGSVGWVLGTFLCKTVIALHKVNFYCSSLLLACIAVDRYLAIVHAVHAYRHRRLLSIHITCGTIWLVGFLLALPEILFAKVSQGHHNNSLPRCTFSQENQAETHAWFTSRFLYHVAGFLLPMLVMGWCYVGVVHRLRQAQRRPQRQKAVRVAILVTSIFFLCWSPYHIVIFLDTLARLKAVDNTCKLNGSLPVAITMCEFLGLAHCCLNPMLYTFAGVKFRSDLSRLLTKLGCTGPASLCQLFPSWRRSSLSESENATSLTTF

CXCR3 = molecular target: T3, CXCR3 (Homo sapiens, UniProt P49682); assay: Cellular functional assay CXCR3; conditions: reference agonist
T3 sequence (P49682 1-368): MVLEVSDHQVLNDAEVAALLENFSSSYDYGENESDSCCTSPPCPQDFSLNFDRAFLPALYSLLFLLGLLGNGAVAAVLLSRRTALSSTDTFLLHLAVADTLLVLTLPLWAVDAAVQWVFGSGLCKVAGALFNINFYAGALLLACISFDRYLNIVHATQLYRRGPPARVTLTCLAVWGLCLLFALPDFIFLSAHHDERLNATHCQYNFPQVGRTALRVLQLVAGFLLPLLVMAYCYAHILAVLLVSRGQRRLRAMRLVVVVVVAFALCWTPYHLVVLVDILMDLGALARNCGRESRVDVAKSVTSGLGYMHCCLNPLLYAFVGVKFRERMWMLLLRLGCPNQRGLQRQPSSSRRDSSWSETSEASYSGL

CXCR4 = CXCR4 (Homo sapiens, UniProt P61073); assay: Cellular functional assay CXCR4; conditions: reference antagonist
CXCR6 = CXCR6 (Homo sapiens, UniProt O00574); assay: Cellular functional assay CXCR6; conditions: reference agonist
CCR4 = molecular target: T4, CCR4 (Homo sapiens, UniProt P51679); assay: Cellular functional assay CCR4; conditions: reference agonist
T4 sequence (P51679 1-360): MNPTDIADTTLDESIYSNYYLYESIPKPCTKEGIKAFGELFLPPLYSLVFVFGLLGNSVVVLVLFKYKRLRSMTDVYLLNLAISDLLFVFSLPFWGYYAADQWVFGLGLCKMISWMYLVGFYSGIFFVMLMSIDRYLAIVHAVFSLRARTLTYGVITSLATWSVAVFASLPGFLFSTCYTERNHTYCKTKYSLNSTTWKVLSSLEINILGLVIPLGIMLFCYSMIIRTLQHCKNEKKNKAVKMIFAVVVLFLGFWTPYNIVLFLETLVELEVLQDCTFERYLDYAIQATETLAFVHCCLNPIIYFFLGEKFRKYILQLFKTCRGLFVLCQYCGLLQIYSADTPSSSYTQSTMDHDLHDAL

CCR8 = CCR8 (Homo sapiens, UniProt P51685); assay: Cellular functional assay CCR8; conditions: reference agonist
CCR9 = molecular target: T5, CCR9 (Homo sapiens, UniProt P51686); assay: Cellular functional assay CCR9; conditions: reference agonist
T5 sequence (P51686 1-369): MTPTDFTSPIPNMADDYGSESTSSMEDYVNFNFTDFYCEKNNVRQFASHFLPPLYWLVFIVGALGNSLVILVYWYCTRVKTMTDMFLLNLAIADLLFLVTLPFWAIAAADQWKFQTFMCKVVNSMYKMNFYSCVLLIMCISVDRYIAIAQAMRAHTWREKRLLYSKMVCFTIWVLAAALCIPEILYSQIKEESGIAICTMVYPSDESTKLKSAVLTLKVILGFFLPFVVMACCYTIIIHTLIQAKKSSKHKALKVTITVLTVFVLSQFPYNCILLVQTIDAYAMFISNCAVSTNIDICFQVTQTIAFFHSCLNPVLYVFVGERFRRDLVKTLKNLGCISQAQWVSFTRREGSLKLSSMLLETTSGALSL

CCR10 = molecular target: T6, CCR10 (Homo sapiens, UniProt P46092); assay: Cellular functional assay CCR10; conditions: reference agonist
T6 sequence (P46092 1-362): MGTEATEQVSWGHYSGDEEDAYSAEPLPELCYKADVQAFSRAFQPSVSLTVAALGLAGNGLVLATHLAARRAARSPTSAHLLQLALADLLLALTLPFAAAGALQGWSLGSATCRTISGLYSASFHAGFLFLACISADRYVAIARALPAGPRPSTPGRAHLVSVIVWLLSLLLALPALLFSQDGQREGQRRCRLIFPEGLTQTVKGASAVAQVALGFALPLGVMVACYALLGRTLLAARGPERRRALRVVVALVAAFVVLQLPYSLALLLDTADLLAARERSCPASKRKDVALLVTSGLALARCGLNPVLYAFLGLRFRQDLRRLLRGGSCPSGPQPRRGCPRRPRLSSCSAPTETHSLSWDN

Chain of CCR8 (P51685 whole entry): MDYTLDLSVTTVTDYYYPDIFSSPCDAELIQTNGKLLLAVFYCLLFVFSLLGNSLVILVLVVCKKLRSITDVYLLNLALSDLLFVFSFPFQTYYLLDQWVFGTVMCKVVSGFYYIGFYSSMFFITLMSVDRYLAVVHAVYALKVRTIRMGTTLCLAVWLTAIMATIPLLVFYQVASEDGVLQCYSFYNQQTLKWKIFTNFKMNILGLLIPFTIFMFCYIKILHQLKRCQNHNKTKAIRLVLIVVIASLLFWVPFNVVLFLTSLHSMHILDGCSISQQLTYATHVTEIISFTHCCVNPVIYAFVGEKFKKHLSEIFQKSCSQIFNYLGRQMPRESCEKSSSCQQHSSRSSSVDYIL
Chain of CXCR4 (P61073 whole entry): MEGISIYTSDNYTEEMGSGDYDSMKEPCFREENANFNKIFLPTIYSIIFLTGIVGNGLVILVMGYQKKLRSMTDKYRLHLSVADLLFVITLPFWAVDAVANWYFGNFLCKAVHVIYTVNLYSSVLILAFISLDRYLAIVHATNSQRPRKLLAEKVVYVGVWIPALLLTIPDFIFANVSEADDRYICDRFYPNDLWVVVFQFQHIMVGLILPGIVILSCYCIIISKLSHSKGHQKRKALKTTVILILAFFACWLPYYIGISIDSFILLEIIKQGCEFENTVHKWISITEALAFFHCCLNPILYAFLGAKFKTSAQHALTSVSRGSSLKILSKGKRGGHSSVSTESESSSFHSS
Chain of CXCR6 (O00574 whole entry): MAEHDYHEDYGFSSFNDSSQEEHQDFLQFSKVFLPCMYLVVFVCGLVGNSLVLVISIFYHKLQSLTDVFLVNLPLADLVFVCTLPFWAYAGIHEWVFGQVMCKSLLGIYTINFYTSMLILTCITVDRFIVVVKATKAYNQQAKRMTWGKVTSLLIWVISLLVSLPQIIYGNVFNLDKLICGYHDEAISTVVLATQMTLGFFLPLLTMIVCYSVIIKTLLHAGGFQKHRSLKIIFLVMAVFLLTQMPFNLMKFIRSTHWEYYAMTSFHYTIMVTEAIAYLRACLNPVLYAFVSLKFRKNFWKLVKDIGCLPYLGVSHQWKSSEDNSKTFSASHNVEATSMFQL

Q: For `COc1cccc(OC)c1OCCNCC1COc2ccccc2O1` (stereo not drawn) [WB 4101, reference compound], which IC50 (ADR1A) is on record?
A: 0.39 nM

Q: With “CXCL13/BLC/BCA-1: chemokine, reference agonist for CXCR5” as the molecule, how does the EC50 (CXCR5) read?
A: 3.8 nM

Q: How did the EC50 (CXCR3) turn out when “I-TAC: chemokine, reference agonist for CXCR3” was run?
A: 2.3 nM

B1: MIP-II: reference antagonist for CXCR4 (protein)
chain: LGASWHRPDKCCLGYQKRPLPQVLLSSWYPTSQLCSKPGVIFLTKRGRQVCADKSKDWVKKLMQQLPVTAR
Q: Which IC50 (CXCR4) does the source give for B1 here?
A: 150 nM

B2: CXCL16: chemokine, reference agonist for CXCR6 (protein, UniProt Q9H2A7 30-254, looked up)
C-X-C motif chemokine 16: NEGSVTGSCYCGKRISSDSPPSVQFMNRLRKHLRAYHRCLYYTRFQLLSWSVCGGNKDPWVQELMSCLDLKECGHAYSGIVAHQKHLLPTSPPISQASEGASSDIHTPAQMLLSTLQSTQRPTLPVGSLSSDKELTRPNETTIHTAGHSLAAGPEAGENQKQPEKNAGPTARTSATVPVLCLLAIIFILTAALSYVLCKRRRGQSPQSSPDLPVHYIPVAPDSNT
Q: For B2, which EC50 (CXCR6) is on record?
A: 1.6 nM

B3: TARC: chemokine, reference agonist for CCR4 (protein, UniProt Q92583 24-94, looked up)
C-C motif chemokine 17: ARGTNVGRECCLEYFKGAIPLRKLKTWYQTSEDCSRDAIVFVTVQGRAICSDPNNKRVKNAVKYLQSLERS
Q: B3 was tested. Which EC50 (CCR4) did it give?
A: 0.34 nM

B4: I-309: chemokine, reference agonist for CCR8 (protein, UniProt P22362 24-96, looked up)
C-C motif chemokine 1: KSMQVPFSRCCFSFAEQEIPLRAILCYRNTSSICSNEGLIFKLKRGKEACALDTVGWVQRHRKMLRHCPSKRK
Q: For B4, which EC50 (CCR8) is on record?
A: 0.72 nM

B5: CCL25: chemokine, reference agonist for CCR9 (protein, UniProt O15444 24-150, looked up)
C-C motif chemokine 25: QGVFEDCCLAYHYPIGWAVLRRAWTYRIQEVSGSCNLPAAIFYLPKRHRKVCGNPKSREVQRAMKLLDARNKVFAKLHHNTQTFQAGPHAVKKLSSGNSKLSSSKFSNPISSSKRNVSLLISANSGL
Q: Which EC50 (CCR9) does the source give for B5 here?
A: 2 nM

B6: CTACK/CCL27: chemokine, reference agonist for CCR10 (protein, UniProt Q9Y4X3 25-112, looked up)
C-C motif chemokine 27: FLLPPSTACCTQLYRKPLSDKLLRKVIQVELQEADGDCHLQAFVLHLAQRSICIHPQNPSLSQWFEHQERKLHGTLPKLNFGMLRKMG
Q: For B6, which EC50 (CCR10) is on record?
A: 5 nM
